Among the data in article PMC9482650, “Quantitative fragmentomics allow affinity mapping of interactomes” (Nature Communications, 2022) are pKd values, retold here.

Some targets named below: DVL2, O14641; NHERF4_3, Q86UT5; LMO7, Q8WWI1; CNKSR3, Q6P9H4; MAGI1_4, Q96QZ7; LIMK1, P53667; TJP1_1, Q07157; CARD14, Q9BXL6; GIPC3, Q8TF64; RIMS1, Q86UR5; LNX1_4, Q8TBB1; AHNAK2, Q8IVF2; GRIP2_2, Q9C0E4; MAGI1_6, Q96QZ7.
Common to all, as to assay: holdup assay
Holding throughout (set-up): key: below the threshold = too weak to quantify, mostly under pKd 3.1 to 4

The next assay deals with T1, PDZD7_2, Q9H5P4.
T1 sequence (Q9H5P4 205-303, limits assumed, looked up): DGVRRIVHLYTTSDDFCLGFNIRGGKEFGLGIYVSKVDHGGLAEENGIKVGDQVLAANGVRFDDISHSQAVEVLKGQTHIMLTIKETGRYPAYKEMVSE

A further assay has as its target T2, USH1C_3, Q9Y6N9.
T2 sequence (Q9Y6N9 447-547, limits assumed, looked up): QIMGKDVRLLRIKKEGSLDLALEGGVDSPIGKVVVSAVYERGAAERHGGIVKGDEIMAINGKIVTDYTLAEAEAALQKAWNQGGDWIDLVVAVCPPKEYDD

The target in the next assay is T3, MLLT4, P55196.
T3 sequence (P55196 1002-1103, limits assumed, looked up): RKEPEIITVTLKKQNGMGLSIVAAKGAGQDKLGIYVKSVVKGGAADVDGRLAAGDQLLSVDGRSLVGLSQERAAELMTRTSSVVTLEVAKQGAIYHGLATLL

The target of another assay is T4, SIPA1L3, O60292.
T4 sequence (O60292 961-1052, limits assumed, looked up): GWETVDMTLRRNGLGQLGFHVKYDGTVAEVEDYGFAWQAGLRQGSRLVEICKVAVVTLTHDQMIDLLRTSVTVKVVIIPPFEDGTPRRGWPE

The target of a further assay is T5, MAGI2_1, Q86UL8.
T5 sequence (Q86UL8 12-111, limits assumed, looked up): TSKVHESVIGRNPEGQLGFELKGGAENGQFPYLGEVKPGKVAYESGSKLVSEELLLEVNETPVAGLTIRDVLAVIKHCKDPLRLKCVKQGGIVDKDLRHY

Another assay addresses T6, PDZD2_3, O15018.
T6 sequence (O15018 581-682, limits assumed, looked up): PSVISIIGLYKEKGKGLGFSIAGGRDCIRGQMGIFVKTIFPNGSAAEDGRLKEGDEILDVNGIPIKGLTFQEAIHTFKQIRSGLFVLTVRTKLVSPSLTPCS

In a further assay the target is T7, PTPN13_4, Q12923.
T7 sequence (Q12923 1783-1878, limits assumed, looked up): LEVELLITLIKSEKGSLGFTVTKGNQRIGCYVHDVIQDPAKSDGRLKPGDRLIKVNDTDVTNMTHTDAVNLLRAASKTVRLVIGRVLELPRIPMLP

Another assay has as its target T8, GRIP1_1, Q9Y3R0.
T8 sequence (Q9Y3R0 48-146, limits assumed, looked up): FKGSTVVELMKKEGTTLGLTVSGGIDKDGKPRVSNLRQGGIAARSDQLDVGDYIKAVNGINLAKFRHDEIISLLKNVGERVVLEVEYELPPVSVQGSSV

In the next assay the target is T9, DVL1, O14640.
T9 sequence (O14640 246-333, limits assumed, looked up): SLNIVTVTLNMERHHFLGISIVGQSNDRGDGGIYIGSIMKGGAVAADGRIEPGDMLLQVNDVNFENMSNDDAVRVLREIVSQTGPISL

The target of another assay is T10, SNTB2, Q13425.
T10 sequence (Q13425 110-208, limits assumed, looked up): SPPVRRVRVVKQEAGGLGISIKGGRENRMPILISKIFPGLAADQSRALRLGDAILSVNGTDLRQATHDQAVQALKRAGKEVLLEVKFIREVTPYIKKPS
As to conditions: plain residues with an end cap or a label only (N-terminal biotin on a linker: (peg)3).

Setting [1] is: plain residues with an end cap or a label only (N-terminal biotin on a linker: (peg)3).
The mark [2] stands for this setting: modified: phospho on S at position -3 from the C-terminal residue.
Where [3] appears, read: modified: acetyl on K at position -1 from the C-terminal residue.

Sequence of NHERF4_3, Q86UT5 (Q86UT5 325-412): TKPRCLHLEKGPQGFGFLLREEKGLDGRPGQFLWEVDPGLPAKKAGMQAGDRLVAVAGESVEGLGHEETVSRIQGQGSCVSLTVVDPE
Sequence of MAGI1_6, Q96QZ7 (Q96QZ7 1146-1238): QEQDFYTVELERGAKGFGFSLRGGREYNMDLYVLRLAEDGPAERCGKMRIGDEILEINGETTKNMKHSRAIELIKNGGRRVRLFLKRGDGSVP
Sequence of TJP1_1, Q07157 (Q07157 18-120): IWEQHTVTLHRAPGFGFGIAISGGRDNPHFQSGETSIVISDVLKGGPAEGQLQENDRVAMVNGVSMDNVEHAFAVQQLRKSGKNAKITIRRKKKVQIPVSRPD
Sequence of RIMS1, Q86UR5 (Q86UR5 584-692): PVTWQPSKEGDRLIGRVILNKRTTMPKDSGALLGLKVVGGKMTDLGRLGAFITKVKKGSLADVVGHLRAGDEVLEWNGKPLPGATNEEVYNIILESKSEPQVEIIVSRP
Sequence of AHNAK2, Q8IVF2 (Q8IVF2 108-193): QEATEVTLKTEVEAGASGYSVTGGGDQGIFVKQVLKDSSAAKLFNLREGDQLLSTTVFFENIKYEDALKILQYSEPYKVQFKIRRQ
Sequence of LMO7, Q8WWI1 (Q8WWI1 1037-1138): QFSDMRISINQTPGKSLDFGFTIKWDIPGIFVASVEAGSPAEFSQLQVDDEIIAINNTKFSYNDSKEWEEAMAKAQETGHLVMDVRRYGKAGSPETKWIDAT
Sequence of GIPC3, Q8TF64 (Q8TF64 107-202): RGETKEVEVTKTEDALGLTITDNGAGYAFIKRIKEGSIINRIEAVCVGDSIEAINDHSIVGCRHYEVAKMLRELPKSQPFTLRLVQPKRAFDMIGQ
Sequence of GRIP2_2, Q9C0E4 (Q9C0E4 137-245): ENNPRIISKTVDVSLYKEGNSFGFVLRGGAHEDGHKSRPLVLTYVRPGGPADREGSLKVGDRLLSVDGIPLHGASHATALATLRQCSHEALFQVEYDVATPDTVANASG
Sequence of MAGI1_4, Q96QZ7 (Q96QZ7 other isoform, or with tags, fused parts or gaps): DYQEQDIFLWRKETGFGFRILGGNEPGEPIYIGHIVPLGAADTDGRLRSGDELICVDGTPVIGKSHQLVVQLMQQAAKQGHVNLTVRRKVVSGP
Sequence of LNX1_4, Q8TBB1 (Q8TBB1 631-726): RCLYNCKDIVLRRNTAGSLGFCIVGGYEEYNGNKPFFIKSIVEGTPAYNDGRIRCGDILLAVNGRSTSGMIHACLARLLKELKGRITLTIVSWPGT
Sequence of CNKSR3, Q6P9H4 (Q6P9H4 203-303): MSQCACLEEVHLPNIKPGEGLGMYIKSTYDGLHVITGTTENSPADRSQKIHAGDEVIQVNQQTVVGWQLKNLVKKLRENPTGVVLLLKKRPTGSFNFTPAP
Sequence of CARD14, Q9BXL6 (Q9BXL6 558-663): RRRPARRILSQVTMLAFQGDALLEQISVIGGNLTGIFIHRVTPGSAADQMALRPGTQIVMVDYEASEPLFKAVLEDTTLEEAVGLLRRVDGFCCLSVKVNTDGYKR
Sequence of DVL2, O14641 (O14641 260-359): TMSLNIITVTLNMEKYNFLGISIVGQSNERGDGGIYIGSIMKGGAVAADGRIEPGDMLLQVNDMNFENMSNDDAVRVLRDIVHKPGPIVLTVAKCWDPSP
Sequence of LIMK1, P53667 (P53667 155-268): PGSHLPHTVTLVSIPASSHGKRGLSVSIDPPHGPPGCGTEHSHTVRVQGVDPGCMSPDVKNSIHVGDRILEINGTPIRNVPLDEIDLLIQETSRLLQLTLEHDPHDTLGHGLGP

Broadly, the pKd is the Kd on a negative log10 scale, so that one unit is a factor of ten. Consider YDEPTTTTSVPL [SARS-Cov2-3a, P0DTC3], for which the negative logarithm of the Kd (pKd) result in the assay with DVL2, O14641 (setting [1]) is reported as “below the threshold”; with NHERF4_3, Q86UT5 (setting [1]) it was “below the threshold”; with PDZD7_2, Q9H5P4 (setting [1]), “below the threshold”; with LMO7, Q8WWI1 (setting [1]), “below the threshold”; with CNKSR3, Q6P9H4 (setting [1]), “below the threshold”; in the assay with USH1C_3, Q9Y6N9 (setting [1]) it was “below the threshold”. Further, the pKd entry was “below the threshold” in the assay with MLLT4, P55196 (setting [1]); “below the threshold” in the assay with MAGI1_4, Q96QZ7 (setting [1]); “below the threshold” with LIMK1, P53667 (setting [1]); “below the threshold” with SIPA1L3, O60292 (setting [1]); “below the threshold” with TJP1_1, Q07157 (setting [1]); “below the threshold” in the assay with CARD14, Q9BXL6 (setting [1]). The pKd entry in the assay with MAGI2_1, Q86UL8 (setting [1]) is given as “below the threshold”; in the assay with PDZD2_3, O15018 (setting [1]), “below the threshold”; with PTPN13_4, Q12923 (setting [1]) it was “below the threshold”; with GIPC3, Q8TF64 (setting [1]), “below the threshold”; in the assay with RIMS1, Q86UR5 (setting [1]) it was “below the threshold”; with LNX1_4, Q8TBB1 (setting [1]) it was “below the threshold”. In addition, the pKd result is listed as “below the threshold” with AHNAK2, Q8IVF2 (setting [1]); “below the threshold” with GRIP2_2, Q9C0E4 (setting [1]); “below the threshold” with MAGI1_6, Q96QZ7 (setting [1]); “below the threshold” with GRIP1_1, Q9Y3R0 (setting [1]); “below the threshold” in the assay with DVL1, O14640 (setting [1]); “below the threshold” with SNTB2, Q13425.
Regarding RRVRKLPSTTL [RPS6KA1_-3P, Q15418], the pKd result is “below the threshold” with DVL2, O14641 (setting [2]); “below the threshold” with NHERF4_3, Q86UT5 (setting [2]); 3.49 in the assay with PDZD7_2, Q9H5P4 (setting [2]); “below the threshold” with LMO7, Q8WWI1 (setting [2]); “below the threshold” in the assay with CNKSR3, Q6P9H4 (setting [2]); “below the threshold” with USH1C_3, Q9Y6N9 (setting [2]). Further, the pKd result was “below the threshold” with MLLT4, P55196 (setting [2]); “below the threshold” with MAGI1_4, Q96QZ7 (setting [2]); “below the threshold” with SIPA1L3, O60292 (setting [2]); “below the threshold” with TJP1_1, Q07157 (setting [2]); “below the threshold” in the assay with CARD14, Q9BXL6 (setting [2]); “below the threshold” with MAGI2_1, Q86UL8 (setting [2]). In addition, the pKd result is “below the threshold” in the assay with PDZD2_3, O15018 (setting [2]); “below the threshold” with PTPN13_4, Q12923 (setting [2]); “below the threshold” in the assay with GIPC3, Q8TF64 (setting [2]); “below the threshold” in the assay with RIMS1, Q86UR5 (setting [2]); “below the threshold” with LNX1_4, Q8TBB1 (setting [2]); 3.54 with AHNAK2, Q8IVF2 (setting [2]). Also, the pKd entry in the assay with GRIP2_2, Q9C0E4 (setting [2]) is “below the threshold”; with MAGI1_6, Q96QZ7 (setting [2]), “below the threshold”; with GRIP1_1, Q9Y3R0 (setting [2]), “below the threshold”; with DVL1, O14640 (setting [2]), “below the threshold”.
Consider DEDQHTQITKV [PTEN_Ac, P60484], for which the pKd result with NHERF4_3, Q86UT5 (setting [3]) was “below the threshold”; with LIMK1, P53667 (setting [3]), “below the threshold”; with SIPA1L3, O60292 (setting [3]), “below the threshold”; with TJP1_1, Q07157 (setting [3]), 3.94; with MAGI2_1, Q86UL8 (setting [3]), “below the threshold”; in the assay with PDZD2_3, O15018 (setting [3]), “below the threshold”. Also, the pKd is 4.96 with PTPN13_4, Q12923 (setting [3]); “below the threshold” in the assay with RIMS1, Q86UR5 (setting [3]); “below the threshold” with AHNAK2, Q8IVF2 (setting [3]); “below the threshold” with MAGI1_6, Q96QZ7 (setting [3]); “below the threshold” with DVL1, O14640 (setting [3]).
